Results taken from patent publication US20230357387A1 (published 2023).
Numbering of substitutions follows the chain as printed.

B1: 63A11 parental antibody (antibody, human IgG1, kappa, V domains shown)
VH: EVQLVESGGGLVKPGGSRKLSCAASGFTFSDHGMHWVRQAPEKGLEWVAYISSGSSAIFYADTVKGRFTMSRDNAKNTLFLQMTSLRSEDTAMYFCARWTNLYAMDYWGQGTSVTVSS
VL: DIVLTQSPASLAVSLGQRATISCRASKSVSTSGYSYMHWYQQKPGQPPKLLIYLASNLESGVPARFSGSGSGTDFTLNIHPVEEEDAATYYCQHSRELPLTFGAGTKLELKR
notes: the full chains it gives are the chimeric ones; also called 19214; parent antibody
B2: 51B12 parental antibody (antibody, human IgG1, kappa, V domains shown)
VH: B1 VH with H32Y, S55G, S56T, A57T, F59Y, M70I, F95Y
VL: B1 VL with L50F, L98V, L100Y, A104G, L110I
notes: also called 19213; parent antibody

Columns and labels:
[1] = target: T1, human ZIP12 extracellular domain expressed as a GST fusion protein (human, UniProt Q504Y0 1-202); assay: ELISA-based reactivity screening, 63A11 lineage (FIG. 6)
T1 construct: also called hZIP12-ECD-GST; huZIP12-ECD-GST; not shown: glutathione S-transferase (GST) fusion partner

[2] = target: T2, human ZIP4 extracellular domain GST fusion (human, UniProt Q6P5W5 23-327); assay: as above
T2 construct: also called hZIP4-ECD-GST; huZIP4-ECD-GST; not shown: glutathione S-transferase (GST) fusion partner
T2 sequence: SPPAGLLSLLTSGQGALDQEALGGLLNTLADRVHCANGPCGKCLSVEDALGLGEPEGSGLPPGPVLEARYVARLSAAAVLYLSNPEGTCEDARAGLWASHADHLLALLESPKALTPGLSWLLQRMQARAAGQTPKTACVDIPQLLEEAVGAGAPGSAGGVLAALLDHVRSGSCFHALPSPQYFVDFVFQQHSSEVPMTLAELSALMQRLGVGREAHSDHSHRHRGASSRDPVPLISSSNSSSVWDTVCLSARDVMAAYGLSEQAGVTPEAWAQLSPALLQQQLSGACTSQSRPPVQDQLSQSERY

[3] = target: T3, human ZIP12 on human ZIP12 expressing transfectant cells (human, UniProt Q504Y0 1-691); assay: flow cytometry-based reactivity screening, 63A11 lineage (FIG. 7)
T3 construct: Zinc transporter; also called ZIP12 transfected cells

[4] = target: T4, ZIP4 as tested by flow cytometry (human, UniProt Q6P5W5 23-647); assay: as above
T4 sequence: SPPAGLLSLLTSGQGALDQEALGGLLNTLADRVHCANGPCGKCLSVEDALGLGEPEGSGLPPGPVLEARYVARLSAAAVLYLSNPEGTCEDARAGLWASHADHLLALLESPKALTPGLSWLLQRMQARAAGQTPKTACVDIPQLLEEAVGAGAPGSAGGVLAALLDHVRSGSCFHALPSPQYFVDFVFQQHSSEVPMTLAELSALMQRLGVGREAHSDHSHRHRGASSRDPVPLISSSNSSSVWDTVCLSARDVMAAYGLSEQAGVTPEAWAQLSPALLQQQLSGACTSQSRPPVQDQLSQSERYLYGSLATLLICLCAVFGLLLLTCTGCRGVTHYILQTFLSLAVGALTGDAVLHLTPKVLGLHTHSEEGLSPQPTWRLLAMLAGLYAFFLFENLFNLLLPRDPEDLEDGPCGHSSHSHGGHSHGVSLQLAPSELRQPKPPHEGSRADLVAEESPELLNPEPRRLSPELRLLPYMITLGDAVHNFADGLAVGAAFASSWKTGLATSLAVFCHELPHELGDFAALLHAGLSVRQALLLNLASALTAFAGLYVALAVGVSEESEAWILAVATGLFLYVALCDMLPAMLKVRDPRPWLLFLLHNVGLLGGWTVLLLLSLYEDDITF

[5] = target: T1, human ZIP12 extracellular domain …; assay: ELISA-based reactivity screening, 51B12 lineage (FIG. 9)
[6] = target: T2, human ZIP4 extracellular domain GST …; assay: as above

Binder	binding result [1]	binding result [2]	binding result [3]	binding result [4]	binding result [5]	binding result [6]
B1	binds	no binding	binds	no binding	–	–
B2	–	–	–	–	binds	no binding
